Assay results published in publication PMC6007307.
“And” between values parts separate entries of the source, which are not always exact repeats. Identical values can stand only once.

Tests used:
[1] = molecular target: IFIT2 (recombinant) (human) (UniProt P09913); assay: SEC-MALS; each protein alone at varying concentrations; Superdex 200 Increase 10/300, room temperature, 20 mM Tris pH 7.5, 150 mM KCl, 1 mM DTT
[2] = molecular target: IFIT2 (recombinant) (human) (UniProt P09913); assay: SEC-MALS; equal amounts of IFIT2 and IFIT3 mixed and incubated at 4°C for 1 h, SEC buffer
IFIT1 (human) = assay: primer extension inhibition (toeprinting); details: 5' cap0 (m7GpppN, no 2'-O-methylation; ScriptCap); Toeprinting at equilibrium, [IFIT1] >= 10x [mRNA]; binding buffer, salt, pH and temperature not in the material (complexes assembled in 20 mM Tris pH 7.5 …)
[3] = test system: IFIT1;IFIT2;IFIT3 (human;human;human); assay: primer extension inhibition (toeprinting); details: 5' cap0 (m7GpppN, no 2'-O-methylation; ScriptCap); Toeprinting at equilibrium, [IFIT1] >= 10x [mRNA]; binding buffer, salt, pH and temperature not in the material (complexes assembled in 20 mM Tris pH 7.5 …)
[4] = test system: IFIT1;IFIT3 (human;human); assay: primer extension inhibition (toeprinting); details: 5' cap0 (m7GpppN, no 2'-O-methylation; ScriptCap); Toeprinting at equilibrium, [IFIT1] >= 10x [mRNA]; binding buffer, salt, pH and temperature not in the material (complexes assembled in 20 mM Tris pH 7.5 …)

Sequence of IFIT2 (recombinant) (P09913 whole entry): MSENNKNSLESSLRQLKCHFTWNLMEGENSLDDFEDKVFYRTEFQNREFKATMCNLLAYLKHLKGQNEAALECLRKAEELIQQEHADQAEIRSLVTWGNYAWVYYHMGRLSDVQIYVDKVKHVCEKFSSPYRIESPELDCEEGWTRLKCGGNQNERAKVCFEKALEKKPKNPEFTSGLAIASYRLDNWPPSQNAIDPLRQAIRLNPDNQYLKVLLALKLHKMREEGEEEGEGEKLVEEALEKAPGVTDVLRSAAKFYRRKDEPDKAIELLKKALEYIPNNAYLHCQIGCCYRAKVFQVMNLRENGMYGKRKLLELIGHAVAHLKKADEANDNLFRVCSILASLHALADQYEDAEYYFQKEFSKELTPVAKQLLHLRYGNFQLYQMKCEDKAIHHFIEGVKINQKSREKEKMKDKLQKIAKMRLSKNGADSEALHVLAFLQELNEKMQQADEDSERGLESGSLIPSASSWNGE

Substance: IFIT2 (recombinant) (from UniProt P09913 1-472) (natural protein)
- stoichiometry N [1]: 2 and 4
- stoichiometry N [2]: 2

Substance: cap0-β-globin Fluc mRNA
- K half (IFIT1 (human)): 40 nM
- K half [3]: 19 nM
- K half [4]: 19 nM
